The results in this text go back to US20190162720A1.

The target in experiment [1] is anti-biotin monoclonal antibody (Abcam plc., ab36406, Mouse monoclonal). The experiment can be described thus: SPR Biacore T200; protein G 40 µg/mL fed over anti-biotin monoclonal antibody on the chip (Example 6).
Experiment [2] has as its target anti-CRP antibody (R&D Systems, Inc., Human C-Reactive protein Antibody, Monoclonal Mouse IgG2B, MAB17071-500). Nature of the experiment: SPR Biacore T200; anti-CRP antibody 100 µg/mL fed over protein G held on the first antibody (Example 6).
Experiment [3] deals with C-Reactive protein (CRP, R&D Systems, Inc., 1707-CR-200, Mouse myeloma cell line) (UniProt P02741). The experiment can be described thus: SPR Biacore T200; CRP 1.0 µg/mL fed over antibody held through protein G (Example 6).
Experiment [4] has the same target. The experiment can be described thus: SPR Biacore T200; CRP 1.0 µg/mL fed over antibody held through protein A/G (6) (Example 7).
The target is the same in experiment [5]. Nature of the experiment: SPR Biacore T200; CRP 1.0 µg/mL fed over antibody held through protein A/G (8) (Example 8).
Experiment [6] shares this target. Nature of the experiment: SPR Biacore T200; CRP 1.0 µg/mL fed over antibody held through protein A/G (6) (Example 9).
For experiment [7] the target is unchanged. The experiment can be described thus: SPR Biacore T200; CRP 1.0 µg/mL fed over antibody held through protein A/G (6) (Example 10).
Experiment [8] has the same target. Nature of the experiment: SPR Biacore T200; CRP 1.0 µg/mL fed over antibody held through protein A/G (8) (Example 11).
The target is the same in experiment [9]. Nature of the experiment: SPR Biacore T200; CRP 1.0 µg/mL fed over antibody held through protein A/G (6) (Example 12).
For experiment [10] the target is unchanged. The experiment can be described thus: SPR Biacore T200; CRP 1.0 µg/mL fed over antibody held through protein A/G (6) (Example 13).
For experiment [11] the target is unchanged. The experiment can be described thus: SPR Biacore T200; CRP 1.0 µg/mL fed over antibody held through protein A/G (6) (Example 14).
Experiment [12] has the same target. Nature of the experiment: SPR Biacore T200; CRP 1.0 µg/mL fed over antibody held through protein A/G (6) (Example 15).
Experiment [13] shares this target. Nature of the experiment: SPR Biacore T200; CRP 1.0 µg/mL fed over antibody held through protein A/G (6) (Example 16).
The target is the same in experiment [14]. Nature of the experiment: SPR Biacore T200; CRP 1.0 µg/mL fed over antibody held through protein A/G (6) (Example 17).
For experiment [15] the target is unchanged. The experiment can be described thus: SPR Biacore T200; CRP 1.0 µg/mL fed over antibody coupled covalently (EDC/s-NHS) to the SAM; corrected with anti-IL6 reference interface (Comparative Example 2).
In experiment [16] the target is anti-CRP antibody (R&D Systems, Inc., Human C-Reactive protein Antibody, Monoclonal Mouse IgG2B, MAB17071-500). The experiment can be described thus: SPR Biacore T200; anti-CRP antibody 100 µg/mL fed over protein A/G (8) held on the first antibody (Example 8).
For experiment [17] the target is unchanged. The experiment can be described thus: SPR Biacore T200; anti-CRP antibody 100 µg/mL fed over protein A/G (8) held on anti-mPEG antibody (Example 11).
Experiment [18] addresses anti-mPEG monoclonal antibody (Abcam plc., ab51257, Mouse monoclonal, Anti-Polyethylene glycol antibody [PEG-B-47]). The experiment can be described thus: SPR Biacore T200; protein A/G (eight domains) 119 µg/mL fed over anti-mPEG antibody on the mPEG chip (Example 11).
Experiment [19] deals with anti-biotin monoclonal antibody (Abcam plc., ab36406, Mouse monoclonal). The experiment can be described thus: SPR Biacore T200; protein A/G (eight domains) 30 µg/mL fed over anti-biotin monoclonal antibody on the chip (Example 8).

UniProt P02741, sequence (P02741 19-224 limits assumed): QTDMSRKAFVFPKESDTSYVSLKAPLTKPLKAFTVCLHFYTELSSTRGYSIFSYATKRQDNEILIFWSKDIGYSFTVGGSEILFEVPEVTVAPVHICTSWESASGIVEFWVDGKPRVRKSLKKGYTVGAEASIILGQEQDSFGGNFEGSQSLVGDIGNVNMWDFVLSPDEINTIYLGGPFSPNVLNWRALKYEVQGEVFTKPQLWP

Take “protein G (BioVision Incorporated, 6501, recombinant protein G, three domains)”: the amount of the protein G immobilized in experiment [1] worked out at 841 RU. In addition, the Amount of second antibody immobilized in experiment [2] amounted to 2010 RU.
Take “anti-CRP antibody (R&D Systems, Inc., Human C-Reactive protein Antibody, Monoclonal Mouse IgG2B, MAB17071-500)”: the Amount of antigen bound in experiment [3] was 513 RU; in [4] it was 422 RU; in [5] it was 745 RU; in experiment [6], 408 RU; in experiment [7] it was 663 RU; in [8], 536 RU. For the same substance, the Amount of antigen bound was 508 RU in experiment [9]; 560 RU in experiment [10]; 630 RU in experiment [11]; 519 RU in [12]; 514 RU in experiment [13]; 481 RU in experiment [14]. Besides, in experiment [15], the Amount of antigen bound was determined as 284 RU.
On to “protein A/G (BioVision Incorporated, 6502, Recombinant Protein A/G from E. coli, eight domains)”, for which the Amount of second antibody immobilized amounted to 3460 RU in [16] and 3210 RU in experiment [17]. For the same substance, the amount of the protein A/G immobilized turned out to be 820 RU in experiment [18] and 868 RU in experiment [19].
